One assay addresses T1, recombinant human αvβ3 (human, UniProt P06756 31-992; P05106 27-718).
T1 construct: Bought from R&D Systems
Nature of the assay: ELISA on coated recombinant integrin. Here is the method:
(§1) 96-well Maxisorb plates (Nunc) were coated overnight at 4° C. with 1 ug/ml of recombinant human αvβ1, αvβ3, αvβ5, αvβ6 and αvβ8 (R&D Systems, MN) diluted in 50 mM carbonate buffer (Sigma, MO). Plates were washed with PBS+0.05% Tween 20 (PBS-T). Wash buffer was removed and plates were blocked for 2 hours at room temperature in TBS blocking buffer (TBS, 0.05% Tween 20, 1% BSA). Plates were washed and then incubated for 2 hours with humanized 2A2 antibody diluted in TBS binding buffer (TBS, 0.05% Tween 20, 1% BSA, 1 mM MnCl₂) at concentrations that ranged from 1 pM-67 nM (10 ug/ml). Plates were washed, incubated for 1 hour with 1:5000 dilution of anti-human Fc-HRP (Jackson ImmunoResearch, PA), washed, and then incubated with TMB substrate for 5 minutes. The reaction was stopped with 1 M HCl. Absorbance at 450 nm was read using a Fusion HT plate reader (Perkin Elmer, Waltham, MA).
Background: In an ELISA, binding on a coated surface is turned into a signal by an enzyme label.

The next assay concerns the target T2, recombinant human αvβ8 (human, UniProt P06756 31-992; P26012 43-684).
T2 construct: Bought from R&D Systems
In words: ELISA on coated recombinant integrin. Here is the method: as §1

Assay [1] concerns the target T3, recombinant human αvβ6 (R&D Systems) (human, UniProt P06756 31-992; P18564 22-707).
T3 construct: Bought from R&D Systems, coated on the ELISA plate
Nature of the assay: ELISA on coated recombinant integrin. Here is the method: as §1

Another assay deals with T4, recombinant human αvβ5 (human, UniProt P06756 31-992; P18084 24-719).
T4 construct: Bought from R&D Systems
T4 sequence (P18084 24-719 limits assumed, one chain of several): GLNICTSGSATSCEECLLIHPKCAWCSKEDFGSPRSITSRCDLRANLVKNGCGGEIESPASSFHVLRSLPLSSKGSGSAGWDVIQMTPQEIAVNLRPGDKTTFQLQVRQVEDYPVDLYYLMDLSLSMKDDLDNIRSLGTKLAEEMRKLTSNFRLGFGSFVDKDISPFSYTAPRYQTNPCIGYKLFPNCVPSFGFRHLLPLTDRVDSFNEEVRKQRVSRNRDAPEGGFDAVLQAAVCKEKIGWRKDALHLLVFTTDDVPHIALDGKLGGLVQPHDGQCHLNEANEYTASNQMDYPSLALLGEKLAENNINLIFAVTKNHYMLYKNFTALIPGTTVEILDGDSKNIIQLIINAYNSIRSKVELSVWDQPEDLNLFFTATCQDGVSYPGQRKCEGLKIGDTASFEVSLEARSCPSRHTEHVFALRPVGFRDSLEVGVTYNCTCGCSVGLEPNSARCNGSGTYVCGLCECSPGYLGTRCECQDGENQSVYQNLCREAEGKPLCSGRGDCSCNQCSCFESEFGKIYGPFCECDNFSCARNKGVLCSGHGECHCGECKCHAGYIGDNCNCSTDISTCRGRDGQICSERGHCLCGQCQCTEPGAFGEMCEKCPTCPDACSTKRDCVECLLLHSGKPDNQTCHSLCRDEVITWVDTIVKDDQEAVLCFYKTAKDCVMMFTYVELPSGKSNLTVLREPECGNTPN
In words: ELISA on coated recombinant integrin. Here is the method:
as §1

The target in another assay is T5, recombinant human αvβ1 (human, UniProt P06756 31-992; P05556 21-728).
T5 construct: Bought from R&D Systems
T5 sequence (P05556 21-728 limits assumed, one chain of several): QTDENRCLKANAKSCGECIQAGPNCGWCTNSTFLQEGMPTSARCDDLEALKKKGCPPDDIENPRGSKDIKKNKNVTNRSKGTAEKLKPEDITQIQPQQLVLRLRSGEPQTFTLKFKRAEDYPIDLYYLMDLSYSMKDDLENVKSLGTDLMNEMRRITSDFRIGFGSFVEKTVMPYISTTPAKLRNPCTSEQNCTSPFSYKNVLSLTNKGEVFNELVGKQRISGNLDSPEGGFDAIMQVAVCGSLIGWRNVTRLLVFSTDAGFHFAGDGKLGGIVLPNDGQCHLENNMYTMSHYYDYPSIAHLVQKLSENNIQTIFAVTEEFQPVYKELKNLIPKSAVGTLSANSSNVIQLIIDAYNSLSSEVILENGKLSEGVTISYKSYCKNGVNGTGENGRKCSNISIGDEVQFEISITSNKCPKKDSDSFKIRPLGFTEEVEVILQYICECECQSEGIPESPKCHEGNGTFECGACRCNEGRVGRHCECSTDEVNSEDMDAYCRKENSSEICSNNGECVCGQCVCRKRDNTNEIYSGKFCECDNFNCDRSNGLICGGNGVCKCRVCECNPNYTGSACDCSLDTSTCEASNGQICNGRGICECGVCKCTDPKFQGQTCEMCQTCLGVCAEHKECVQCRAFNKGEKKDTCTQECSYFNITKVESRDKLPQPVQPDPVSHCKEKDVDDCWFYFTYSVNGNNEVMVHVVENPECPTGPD
In words: ELISA on coated recombinant integrin. The protocol:
as §1

For assay [2], the target named is T6, human αvβ6 on 293F:huβ6 cells (human, UniProt P06756 31-1048; P18564 22-788).
T6 chain 1: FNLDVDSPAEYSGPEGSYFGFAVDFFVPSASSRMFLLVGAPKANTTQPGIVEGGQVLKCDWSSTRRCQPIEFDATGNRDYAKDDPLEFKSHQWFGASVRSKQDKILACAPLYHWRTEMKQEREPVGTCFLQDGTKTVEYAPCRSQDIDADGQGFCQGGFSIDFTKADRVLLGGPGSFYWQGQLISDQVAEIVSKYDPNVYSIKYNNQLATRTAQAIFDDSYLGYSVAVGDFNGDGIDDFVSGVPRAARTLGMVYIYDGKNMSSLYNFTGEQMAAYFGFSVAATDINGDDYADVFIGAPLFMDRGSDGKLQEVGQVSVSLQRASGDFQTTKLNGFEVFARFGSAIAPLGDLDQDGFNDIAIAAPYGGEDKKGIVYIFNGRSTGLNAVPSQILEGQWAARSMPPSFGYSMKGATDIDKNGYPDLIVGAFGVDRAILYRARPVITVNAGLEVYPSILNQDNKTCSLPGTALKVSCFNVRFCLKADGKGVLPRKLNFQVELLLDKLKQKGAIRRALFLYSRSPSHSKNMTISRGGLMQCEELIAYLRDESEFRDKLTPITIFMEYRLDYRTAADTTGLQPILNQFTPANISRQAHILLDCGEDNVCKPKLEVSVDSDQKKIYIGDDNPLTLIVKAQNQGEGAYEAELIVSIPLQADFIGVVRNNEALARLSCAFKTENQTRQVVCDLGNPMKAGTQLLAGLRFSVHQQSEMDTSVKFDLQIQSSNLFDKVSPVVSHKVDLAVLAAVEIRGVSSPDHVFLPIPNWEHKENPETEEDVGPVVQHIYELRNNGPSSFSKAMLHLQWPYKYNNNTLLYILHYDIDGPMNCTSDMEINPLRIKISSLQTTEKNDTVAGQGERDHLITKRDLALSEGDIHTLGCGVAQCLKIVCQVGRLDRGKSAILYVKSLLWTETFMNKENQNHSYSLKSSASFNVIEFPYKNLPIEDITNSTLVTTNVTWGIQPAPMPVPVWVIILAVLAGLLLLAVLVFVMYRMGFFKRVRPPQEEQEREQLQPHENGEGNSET
T6 chain 2: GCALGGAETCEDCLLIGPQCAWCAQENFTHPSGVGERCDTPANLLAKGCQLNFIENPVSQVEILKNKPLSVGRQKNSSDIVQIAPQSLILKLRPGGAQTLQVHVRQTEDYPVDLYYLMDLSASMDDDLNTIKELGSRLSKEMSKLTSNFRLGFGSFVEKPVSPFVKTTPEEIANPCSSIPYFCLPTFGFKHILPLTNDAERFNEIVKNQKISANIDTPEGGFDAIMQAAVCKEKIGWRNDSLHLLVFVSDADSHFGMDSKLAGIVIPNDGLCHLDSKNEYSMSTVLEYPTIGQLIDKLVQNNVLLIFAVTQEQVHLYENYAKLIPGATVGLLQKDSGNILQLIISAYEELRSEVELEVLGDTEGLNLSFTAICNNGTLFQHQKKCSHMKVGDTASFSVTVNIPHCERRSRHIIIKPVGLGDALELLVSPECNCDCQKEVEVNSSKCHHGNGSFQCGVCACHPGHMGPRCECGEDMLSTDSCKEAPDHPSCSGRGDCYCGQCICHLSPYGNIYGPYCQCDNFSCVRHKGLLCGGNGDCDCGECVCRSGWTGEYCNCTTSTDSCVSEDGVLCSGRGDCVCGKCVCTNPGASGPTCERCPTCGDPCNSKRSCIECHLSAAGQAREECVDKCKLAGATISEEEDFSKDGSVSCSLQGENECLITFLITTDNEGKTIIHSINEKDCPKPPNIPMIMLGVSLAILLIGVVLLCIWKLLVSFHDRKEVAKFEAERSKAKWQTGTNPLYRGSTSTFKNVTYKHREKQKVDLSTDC
In words: competition binding on 293F cells.

T1 sequence (P05106 27-718 limits assumed, one chain of several): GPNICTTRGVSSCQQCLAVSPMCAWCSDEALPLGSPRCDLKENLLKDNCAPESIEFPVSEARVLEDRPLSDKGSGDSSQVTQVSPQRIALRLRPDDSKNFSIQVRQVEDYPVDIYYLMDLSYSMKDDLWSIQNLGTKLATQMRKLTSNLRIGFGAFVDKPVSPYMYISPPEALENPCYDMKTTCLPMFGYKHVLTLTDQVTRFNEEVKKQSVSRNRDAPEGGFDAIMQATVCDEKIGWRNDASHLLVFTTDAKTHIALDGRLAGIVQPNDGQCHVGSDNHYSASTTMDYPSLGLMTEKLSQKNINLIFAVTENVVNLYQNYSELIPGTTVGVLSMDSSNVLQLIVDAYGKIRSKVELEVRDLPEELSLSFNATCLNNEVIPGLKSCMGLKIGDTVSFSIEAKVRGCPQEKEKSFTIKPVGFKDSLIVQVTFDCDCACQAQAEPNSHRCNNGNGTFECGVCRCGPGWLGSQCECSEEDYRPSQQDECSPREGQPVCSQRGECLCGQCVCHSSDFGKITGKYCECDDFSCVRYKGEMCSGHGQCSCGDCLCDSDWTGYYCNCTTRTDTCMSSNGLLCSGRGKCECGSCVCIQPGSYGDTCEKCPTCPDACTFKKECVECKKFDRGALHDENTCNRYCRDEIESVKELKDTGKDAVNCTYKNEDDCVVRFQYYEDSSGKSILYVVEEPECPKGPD
T2 sequence (P26012 43-684 limits assumed, one chain of several): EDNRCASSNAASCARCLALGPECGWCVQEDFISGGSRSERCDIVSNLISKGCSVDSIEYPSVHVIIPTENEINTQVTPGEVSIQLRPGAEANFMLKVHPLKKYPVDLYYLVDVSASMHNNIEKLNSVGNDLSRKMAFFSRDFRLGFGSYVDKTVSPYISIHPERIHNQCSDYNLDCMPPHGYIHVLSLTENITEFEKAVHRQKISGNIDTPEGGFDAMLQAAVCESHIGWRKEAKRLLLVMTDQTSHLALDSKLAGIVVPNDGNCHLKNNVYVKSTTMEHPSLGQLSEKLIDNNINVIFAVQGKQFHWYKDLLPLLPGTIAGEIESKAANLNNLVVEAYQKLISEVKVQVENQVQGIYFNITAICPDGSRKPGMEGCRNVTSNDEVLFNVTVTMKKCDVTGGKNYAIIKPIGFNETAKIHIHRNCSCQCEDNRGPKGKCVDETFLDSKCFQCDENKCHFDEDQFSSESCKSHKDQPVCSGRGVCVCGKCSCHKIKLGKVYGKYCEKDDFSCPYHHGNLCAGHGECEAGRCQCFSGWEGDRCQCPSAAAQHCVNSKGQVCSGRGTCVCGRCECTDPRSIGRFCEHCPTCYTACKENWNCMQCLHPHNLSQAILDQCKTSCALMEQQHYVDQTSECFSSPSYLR

B1: h2A2 HCLG humanized antibody (antibody, human IgG1, kappa, V domains shown)
VH: QFQLVQSGAEVKKPGASVKVSCKASGYSFTDYNVNWVRQAPGQGLEWIGVINPKYGTTRYNQKFKGRATLTVDKSTSTAYMELSSLRSEDTAVYYCTRGLNAWDYWGQGTLVTVSS
VL: DIQMTQSPSSLSASVGDRVTITCGASENIYGALNWYQQKPGKAPKLLIYGATNLEDGVPSRFSGSGSGRDYTFTISSLQPEDIATYYCQNVLTTPYTFGQGTKLEIKR
notes: Labelled with AlexaFluor-647 in the saturation assay; also called humanized 2A2 HCLG
In the case of B1, the binding result with recombinant human αvβ3 is on record as “no binding (tested: 1 pM-67 nM (10 ug/ml))”; in the assay with recombinant human αvβ8 it was “no binding (tested: 1 pM-67 nM (10 ug/ml))”; in assay [1], “binds”; in the assay with recombinant human αvβ5 it was “no binding (tested: 1 pM-67 nM (10 ug/ml))”; with recombinant human αvβ1, “no binding (tested: 1 pM-67 nM (10 ug/ml))”. Further, the EC50 in assay [2] came out at 3 nM.

Broadly, the EC50 is the concentration needed to bring the measured effect to its halfway point. Read a low EC50 as a more potent agent.
